Measured values published in the supplement of paper PMC9112550, “Optimization of the antimicrobial peptide Bac7 by deep mutational scanning” (BMC Biology, 2022).

system: Escherichia coli TOP10; experiment: shrunken log2 fold change of peptide-encoding DNA abundance (4.5 h post-induction vs induction); higher = less antimicrobial activity (less host growth inhibition); conditions: time post-induction: 4.5 h; library: site-saturation at positions 5, 18, 19, 20
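Further: peptides expressed intracellularly from a pBAD plasmid library in pooled LB shake-flask culture, induced with 0.3% L-arabinose, DNA abundance read by NGS, three biological replicates, DESeq2 with apeglm shrinkage.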

Sequence | shrunken log2 fold change
RRIRVRPPRLPRPRPRPIDNPRP | -0.447
RRIRPRPPRLPRPRPRPPKGPRP | 0.308
RRIRSRPPRLPRPRPRPEGVPRP | 0.552
RRIRCRPPRLPRPRPRPGWKPRP | 0.173
RRIRPRPPRLPRPRPRPECQPRP | 0.126
RRIRARPPRLPRPRPRPCNNPRP | -0.352
RRIRFRPPRLPRPRPRPCVHPRP | 0.00355
RRIRSRPPRLPRPRPRPTMCPRP | -0.0421
RRIRWRPPRLPRPRPRPERAPRP | 0.707
RRIRLRPPRLPRPRPRPDYIPRP | -0.161
RRIRSRPPRLPRPRPRPPMAPRP | 0.169
RRIRVRPPRLPRPRPRPLFQPRP | -0.0438
RRIRMRPPRLPRPRPRPNTPPRP | 0.188
RRIRVRPPRLPRPRPRPEKYPRP | -0.171
RRIRMRPPRLPRPRPRPSMCPRP | 0.0724
RRIRYRPPRLPRPRPRPINIPRP | -1.21
RRIRKRPPRLPRPRPRPCTFPRP | 0.00111
RRIRDRPPRLPRPRPRPGMYPRP | -0.00172
RRIRMRPPRLPRPRPRPTDAPRP | 0.741
RRIRTRPPRLPRPRPRPQKNPRP | -0.419
RRIRWRPPRLPRPRPRPFMHPRP | -0.153
RRIRERPPRLPRPRPRPRLKPRP | -0.0205
RRIRWRPPRLPRPRPRPDWSPRP | 0.0189
RRIRSRPPRLPRPRPRPGISPRP | -0.486
RRIRGRPPRLPRPRPRPSPRPRP | 0.927

Sequence | shrunken log2 fold change
RRIRCRPPRLPRPRPRPSLCPRP | -0.49
RRIRWRPPRLPRPRPRPFCLPRP | 0.0169
RRIRNRPPRLPRPRPRPMEQPRP | -0.208
RRIRWRPPRLPRPRPRPTRNPRP | -0.0437
RRIRLRPPRLPRPRPRPPHVPRP | 0.989
RRIRERPPRLPRPRPRPHLSPRP | -0.19
RRIRTRPPRLPRPRPRPNVEPRP | -0.00865
RRIRNRPPRLPRPRPRPGVLPRP | 0.222
RRIRYRPPRLPRPRPRPPYEPRP | -0.0831
RRIRPRPPRLPRPRPRPRRVPRP | 0.098
RRIRPRPPRLPRPRPRPFMIPRP | 0.471
RRIRVRPPRLPRPRPRPPHSPRP | 0.108
RRIRNRPPRLPRPRPRPSTKPRP | -0.0203
RRIRIRPPRLPRPRPRPHTAPRP | 0.055
RRIRHRPPRLPRPRPRPTSCPRP | -0.125
RRIRRRPPRLPRPRPRPTDKPRP | 0.0418
RRIRFRPPRLPRPRPRPGMVPRP | -0.0783
RRIRARPPRLPRPRPRPIYWPRP | 0.0177
RRIRYRPPRLPRPRPRPLNCPRP | -0.295
RRIRNRPPRLPRPRPRPRLCPRP | 0.121
RRIRQRPPRLPRPRPRPERRPRP | 0.0099
RRIRGRPPRLPRPRPRPVANPRP | 0.623
RRIRRRPPRLPRPRPRPEKWPRP | -0.00174
RRIRYRPPRLPRPRPRPDKRPRP | -0.168
RRIRHRPPRLPRPRPRPEYKPRP | -0.467

Sequence | shrunken log2 fold change
RRIRVRPPRLPRPRPRPIDLPRP | -0.417
RRIRARPPRLPRPRPRPKHCPRP | 0.0395
RRIRYRPPRLPRPRPRPATMPRP | -0.69
RRIRDRPPRLPRPRPRPGLLPRP | 0.16
RRIRRRPPRLPRPRPRPQLPPRP | 0.283
RRIRGRPPRLPRPRPRPAECPRP | 0.196
RRIRFRPPRLPRPRPRPIPGPRP | -0.00876
RRIRVRPPRLPRPRPRPISWPRP | 0.18
RRIRPRPPRLPRPRPRPKCHPRP | 0.0622
RRIRERPPRLPRPRPRPLVGPRP | -0.198
RRIRERPPRLPRPRPRPLVIPRP | -0.169
RRIRTRPPRLPRPRPRPVIHPRP | 0.0146
RRIRFRPPRLPRPRPRPQVSPRP | -0.298
RRIRERPPRLPRPRPRPAHRPRP | 0.0394
RRIRQRPPRLPRPRPRPCFQPRP | -0.252
RRIRPRPPRLPRPRPRPHVLPRP | -0.0256
RRIRDRPPRLPRPRPRPKSPPRP | 0.0198
RRIRDRPPRLPRPRPRPQCQPRP | -0.00822
RRIRLRPPRLPRPRPRPEEAPRP | 0.495
RRIRCRPPRLPRPRPRPHMNPRP | -0.843
RRIRRRPPRLPRPRPRPAIGPRP | 0.136
RRIRMRPPRLPRPRPRPPQIPRP | 0.468
RRIRSRPPRLPRPRPRPSIGPRP | 0.347
RRIRARPPRLPRPRPRPAYQPRP | 0.106
RRIRQRPPRLPRPRPRPSFKPRP | -0.525
